In patent US20150344570A1 (published 2015):

T1: FcγRIIb (human, UniProt P31994 43-217)
T1 construct: extracellular domain; Soluble extracellular domain with a C-terminal His tag, expressed in FreeStyle293 cells; also called FcgRIIb; 2b; not shown: His tag attached to the C terminus
T1 sequence (looked up): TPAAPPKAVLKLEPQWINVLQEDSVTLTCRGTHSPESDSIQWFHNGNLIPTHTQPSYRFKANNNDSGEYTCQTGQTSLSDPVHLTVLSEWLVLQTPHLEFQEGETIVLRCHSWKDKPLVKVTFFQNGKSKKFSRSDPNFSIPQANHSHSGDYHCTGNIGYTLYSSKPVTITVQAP

T2: FcγRIIb extracellular domain with C-terminal His tag (human, UniProt P31994 43-217)
T2 construct: extracellular domain; also called FcgRIIb; CD32B; not shown: His tag at the C terminus
T2 sequence (looked up): T1 sequence (looked up)

B1: GpH7-A5/GpH7-B3 variant S239_01G/GpL16-k0 (antibody, human IgG1, kappa)
heavy 1: not shown
heavy 2: not shown
light: DIVMTQSPLSLPVTPGEPASISCQASESLVHSNRNTYLHWYLQKPGQSPQLLIYKVSNRFSGVPDRFSGSGSGTDFTLKISRVEAEDVGVYYCSQNTHVPPTFGQGTKVEIERTVAAPSVFIFPPSDEQLKSGTASVVCLLNNFYPREAKVQWKVDNALQSGNSQESVTEQDSKDSTYSLSSTLTLSKADYEKHKVYACEVTHQGLSSPVTKSFNRGEC
notes: Heterodimerized anti-glypican-3 IgG1; also called He Ab
B2: GpH7-A5/GpH7-B3 variant P238_20W/GpL16-k0 (antibody, human IgG1, kappa)
heavy 1: not shown
heavy 2: not shown
light: B1 light
notes: Heterodimerized anti-glypican-3 IgG1; the mutation is in the GpH7-B3 chain only; also called He Ab
B3: GpH7-A5/GpH7-B3 variant P238_19Q/GpL16-k0 (antibody, human IgG1, kappa)
heavy 1: not shown
heavy 2: not shown
light: B1 light
notes: as for B2
B4: GpH7-A5/GpH7-B3 variant P238_18N/GpL16-k0 (antibody, human IgG1, kappa)
heavy 1: not shown
heavy 2: not shown
light: B1 light
notes: as for B2
B5: GpH7-A5/GpH7-B3 variant S239_16H/GpL16-k0 (antibody, human IgG1, kappa)
heavy 1: not shown
heavy 2: not shown
light: B1 light
notes: as for B2
B6: GpH7-A5/GpH7-B3 variant P238_08L/GpL16-k0 (antibody, human IgG1, kappa)
heavy 1: not shown
heavy 2: not shown
light: B1 light
notes: as for B2
B7: GpH7-A5/GpH7-B3 variant G236_14T/GpL16-k0 (antibody, human IgG1, kappa)
heavy 1: not shown
heavy 2: not shown
light: B1 light
notes: Heterodimerized anti-glypican-3 IgG1; mutation only in the GpH7-B3 H chain; also called He Ab
B8: GpH7-A5/GpH7-B3 variant S239_04F/GpL16-k0 (antibody, human IgG1, kappa)
heavy 1: not shown
heavy 2: not shown
light: B1 light
notes: as for B2
B9: GpH7-A5/GpH7-B3 variant S239_03V/GpL16-k0 (antibody, human IgG1, kappa)
heavy 1: not shown
heavy 2: not shown
light: B1 light
notes: as for B2
B10: GpH7-A5/GpH7-B3 variant P238_16H/GpL16-k0 (antibody, human IgG1, kappa)
heavy 1: not shown
heavy 2: not shown
light: B1 light
notes: as for B2
B11: GpH7-A5/GpH7-B3 variant G236_15Y/GpL16-k0 (antibody, human IgG1, kappa)
heavy 1: not shown
heavy 2: not shown
light: B1 light
notes: as for B7
B12: GpH7-A5/GpH7-B3 variant P238_15Y/GpL16-k0 (antibody, human IgG1, kappa)
heavy 1: not shown
heavy 2: not shown
light: B1 light
notes: as for B2
B13: GpH7-A5/GpH7-B3 variant S239_08L/GpL16-k0 (antibody, human IgG1, kappa)
heavy 1: not shown
heavy 2: not shown
light: B1 light
notes: as for B2
B14: GpH7-A5/GpH7-B3 variant S239_07I/GpL16-k0 (antibody, human IgG1, kappa)
heavy 1: not shown
heavy 2: not shown
light: B1 light
notes: as for B2
B15: GpH7-A5/GpH7-B3 variant S239_15Y/GpL16-k0 (antibody, human IgG1, kappa)
heavy 1: not shown
heavy 2: not shown
light: B1 light
notes: as for B2
B16: GpH7-A5/GpH7-B3 variant P238_07I/GpL16-k0 (antibody, human IgG1, kappa)
heavy 1: not shown
heavy 2: not shown
light: B1 light
notes: as for B2
B17: GpH7-A5/GpH7-B3 variant S239_12R/GpL16-k0 (antibody, human IgG1, kappa)
heavy 1: not shown
heavy 2: not shown
light: B1 light
notes: as for B2
B18: GpH7-A5/GpH7-B3 variant P238_04F/GpL16-k0 (antibody, human IgG1, kappa)
heavy 1: not shown
heavy 2: not shown
light: B1 light
notes: as for B2
B19: GpH7-A5/GpH7-B3 variant G236_11K/GpL16-k0 (antibody, human IgG1, kappa)
heavy 1: not shown
heavy 2: not shown
light: B1 light
notes: as for B7

Experiments:
FcγRIIIa [1] = target: T3, FcγRIIIa (human, UniProt P08637 17-208); assay: SPR; He/Con_3a (FcγRIIIa) divided by He/Con_2b (FcγRIIb)
T3 construct: extracellular domain; Soluble extracellular domain with a C-terminal His tag; also called FcgRIIIa; 3a; not shown: His tag attached to the C terminus
T3 sequence (P08637 17-208): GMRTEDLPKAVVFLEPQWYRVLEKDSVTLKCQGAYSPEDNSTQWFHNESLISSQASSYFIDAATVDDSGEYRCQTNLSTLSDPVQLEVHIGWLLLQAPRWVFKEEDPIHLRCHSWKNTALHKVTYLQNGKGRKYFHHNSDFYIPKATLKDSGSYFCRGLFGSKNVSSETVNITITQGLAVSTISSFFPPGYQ

FcγRIIIa [2] = target: T3, FcγRIIIa; assay: SPR (Biacore), antibody captured on chip, FcγR as analyte
FcγRIIb = target: T1, FcγRIIb; assay: as above
[3] = target: T4, FcγRIa extracellular domain with C-terminal His tag (human, UniProt P12314 16-292); assay: SPR; He/Con_1a divided by He/Con_2b (FcγRIa against FcγRIIb)
T4 construct: extracellular domain; also called FcgRI; CD64; not shown: His tag at the C terminus
T4 sequence (P12314 16-292): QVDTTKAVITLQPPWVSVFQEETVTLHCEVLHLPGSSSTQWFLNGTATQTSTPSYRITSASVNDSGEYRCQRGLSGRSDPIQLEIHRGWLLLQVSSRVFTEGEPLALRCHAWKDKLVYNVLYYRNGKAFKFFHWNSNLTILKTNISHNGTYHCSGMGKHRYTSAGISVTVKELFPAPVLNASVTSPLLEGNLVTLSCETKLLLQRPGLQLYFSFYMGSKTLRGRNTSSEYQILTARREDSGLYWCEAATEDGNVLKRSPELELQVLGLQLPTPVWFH

[4] = target: T2, FcγRIIb extracellular domain with …; assay: SPR (Biacore), antibody captured, FcγR analyte; relative to GpH7-A5/GpH7-B3/GpL16-k0 = 100
[5] = target: T4, FcγRIa extracellular domain with …; assay: as above

| He_3a/2b (IIIa/IIb) (FcγRIIIa [1]) | He/Con_3a (FcγRIIIa [2]) | He/Con_2b (FcγRIIb) | He_1a/2b (Ia/IIb) [3] | He/Con_2b [4] | He/Con_1a [5] | Binder |
| --- | --- | --- | --- | --- | --- | --- |
| 0.53 ratio | 76.2 relative binding, GpH7-A5/GpH7-B3/GpL16-k0 = 100 | 144 relative binding, GpH7-A5/GpH7-B3/GpL16-k0 = 100 |  |  |  | B1 |
| 0.4 ratio | 49.7 relative binding, GpH7-A5/GpH7-B3/GpL16-k0 = 100 | 123 relative binding, GpH7-A5/GpH7-B3/GpL16-k0 = 100 |  |  |  | B2 |
| 0.51 ratio | 55.8 relative binding, GpH7-A5/GpH7-B3/GpL16-k0 = 100 | 110 relative binding, GpH7-A5/GpH7-B3/GpL16-k0 = 100 |  |  |  | B3 |
| 0.55 ratio | 40.4 relative binding, GpH7-A5/GpH7-B3/GpL16-k0 = 100 | 73.2 relative binding, GpH7-A5/GpH7-B3/GpL16-k0 = 100 |  |  |  | B4 |
| 0.59 ratio | 29.2 relative binding, GpH7-A5/GpH7-B3/GpL16-k0 = 100 | 49.4 relative binding, GpH7-A5/GpH7-B3/GpL16-k0 = 100 |  |  |  | B5 |
| 0.37 ratio | 75.5 relative binding, GpH7-A5/GpH7-B3/GpL16-k0 = 100 | 204 relative binding, GpH7-A5/GpH7-B3/GpL16-k0 = 100 |  |  |  | B6 |
|  |  |  | 1.59 ratio | 57.8 % of HeCon Ab | 92.2 % of HeCon Ab | B7 |
| 0.57 ratio | 25.3 relative binding, GpH7-A5/GpH7-B3/GpL16-k0 = 100 | 44.1 relative binding, GpH7-A5/GpH7-B3/GpL16-k0 = 100 |  |  |  | B8 |
| 0.71 ratio | 76.6 relative binding, GpH7-A5/GpH7-B3/GpL16-k0 = 100 | 108 relative binding, GpH7-A5/GpH7-B3/GpL16-k0 = 100 |  |  |  | B9 |
| 0.27 ratio | 30.7 relative binding, GpH7-A5/GpH7-B3/GpL16-k0 = 100 | 115 relative binding, GpH7-A5/GpH7-B3/GpL16-k0 = 100 |  |  |  | B10 |
|  |  |  | 2.34 ratio | 39.5 % of HeCon Ab | 92.5 % of HeCon Ab | B11 |
| 0.3 ratio | 64.5 relative binding, GpH7-A5/GpH7-B3/GpL16-k0 = 100 | 218 relative binding, GpH7-A5/GpH7-B3/GpL16-k0 = 100 |  |  |  | B12 |
| 0.68 ratio | 95.3 relative binding, GpH7-A5/GpH7-B3/GpL16-k0 = 100 | 140 relative binding, GpH7-A5/GpH7-B3/GpL16-k0 = 100 |  |  |  | B13 |
| 0.74 ratio | 79.3 relative binding, GpH7-A5/GpH7-B3/GpL16-k0 = 100 | 107 relative binding, GpH7-A5/GpH7-B3/GpL16-k0 = 100 |  |  |  | B14 |
| 0.73 ratio | 25.6 relative binding, GpH7-A5/GpH7-B3/GpL16-k0 = 100 | 34.9 relative binding, GpH7-A5/GpH7-B3/GpL16-k0 = 100 |  |  |  | B15 |
| 0.35 ratio | 27.8 relative binding, GpH7-A5/GpH7-B3/GpL16-k0 = 100 | 80 relative binding, GpH7-A5/GpH7-B3/GpL16-k0 = 100 |  |  |  | B16 |
| 0.44 ratio | 17 relative binding, GpH7-A5/GpH7-B3/GpL16-k0 = 100 | 39.1 relative binding, GpH7-A5/GpH7-B3/GpL16-k0 = 100 |  |  |  | B17 |
| 0.15 ratio | 46.7 relative binding, GpH7-A5/GpH7-B3/GpL16-k0 = 100 | 312 relative binding, GpH7-A5/GpH7-B3/GpL16-k0 = 100 |  |  |  | B18 |
|  |  |  | 1.42 ratio | 49.8 % of HeCon Ab | 71 % of HeCon Ab | B19 |
